Assay [1] deals with NLpep9-HT. Put plainly: cell-based or functional assay.
The target of assay [2] is NLpep53-HT. Put plainly: cell-based or functional assay.

Consider 23 substances from US20140348747A1.

With NLpoly M106V, the luminescence after complementation (RLU(mutant)/RLU(WT)) in assay [1] amounted to 1.3; in assay [2], 1.4.

Turning to NLpoly F31I, the luminescence after complementation (RLU(mutant)/RLU(WT)) turned out to be 4.1 in assay [1] and 2.83 in assay [2].

In the case of NLpoly Q20K, the luminescence after complementation (RLU(mutant)/RLU(WT)) in assay [1] is 4.43; in assay [2] it was 2.33.

Regarding NLpoly I56N, the luminescence after complementation (RLU(mutant)/RLU(WT)) in assay [1] was 0.44; in assay [2], 1.81.

On to NLpoly F31V, for which the luminescence after complementation (RLU(mutant)/RLU(WT)) in assay [1] and in assay [2] was 2.12 throughout.

For the substance NLpoly I59T, the luminescence after complementation (RLU(mutant)/RLU(WT)) was 1.07 in assay [1] and 1.35 in assay [2].

As to NLpoly M106I, the luminescence after complementation (RLU(mutant)/RLU(WT)) in assay [1] is 1.27; in assay [2], 1.31.

NLpoly F31L: the luminescence after complementation (RLU(mutant)/RLU(WT)) came to 3.13 in assay [1] and 2.86 in assay [2].

On to NLpoly N33R, for which the luminescence after complementation (RLU(mutant)/RLU(WT)) in assay [1] was determined as 2.1; in assay [2], 1.56.

In the case of NLpoly N156D, the luminescence after complementation (RLU(mutant)/RLU(WT)) came to 1.57 in assay [1] and 1.21 in assay [2].

Regarding NLpoly G67D, the luminescence after complementation (RLU(mutant)/RLU(WT)) in assay [1] was 1.78; in assay [2] it was 1.57.

For the substance NLpoly N156S, the luminescence after complementation (RLU(mutant)/RLU(WT)) worked out at 1.04 in assay [1] and 1.4 in assay [2].

Take NLpoly V27M: the luminescence after complementation (RLU(mutant)/RLU(WT)) in assay [1] turned out to be 1.99; in assay [2], 1.7.

Regarding NLpoly N144T, the figures for the luminescence after complementation (RLU(mutant)/RLU(WT)) in assay [1] and in assay [2] were 3.69 and 2.26, respectively.

In the case of NLpoly T13I, the results for the luminescence after complementation (RLU(mutant)/RLU(WT)) in assay [1] and in assay [2] were 2.18 and 1.44, respectively.

Turning to NLpoly L149M, the luminescence after complementation (RLU(mutant)/RLU(WT)) in assay [1] turned out to be 2.89; in assay [2], 2.16.

Take NLpoly L18Q: the luminescence after complementation (RLU(mutant)/RLU(WT)) in assay [1] was found to be 3.81; in assay [2] it was 2.99.

On to NLpoly N33K, for which the luminescence after complementation (RLU(mutant)/RLU(WT)) is 2.15 in assay [1] and 1.76 in assay [2].

Take NLpoly G15S: the luminescence after complementation (RLU(mutant)/RLU(WT)) turned out to be 1.98 in assay [1] and 2.34 in assay [2].

With NLpoly Q32R, the luminescence after complementation (RLU(mutant)/RLU(WT)) in assay [1] turned out to be 1.52; in assay [2] it was 1.04.

Take NLpoly K75E: the luminescence after complementation (RLU(mutant)/RLU(WT)) in assay [1] is 2.08; in assay [2], 2.05.

On to NLpoly R112N, for which the luminescence after complementation (RLU(mutant)/RLU(WT)) in assay [1] was 1.61; in assay [2] it was 1.45.

Consider NLpoly G67S, for which the values for the luminescence after complementation (RLU(mutant)/RLU(WT)) in assay [1] and in assay [2] were 1.22 and 1.29, respectively.
